From the supplement of paper PMC12042874
± gives the uncertainty stated by the source.

Assay: amyloid nucleation score (Sup35N fusion, yeast selection) (log enrichment); library NNK2; higher = more nucleation; inactive = no reads after selection
Summary of the method: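 The nucleation score is the DiMSum log enrichment of output over input reads, centred on the mode score of non-aggregating sequences. Only sequences with 100 or more input reads were scored, using Illumina sequencing of input and output plasmid inserts. Psi-negative yeast expressing Sup35N fused to peptides of 20 random codons were induced 24 hours with 100 μM copper sulfate and grown 7 days at 30°C on medium lacking adenine and uracil.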

**Q.** For TRASYFCQSTANYSVSRSNM, which amyloid nucleation score is on record?
**A.** 1.8 ± 0.3

**Q.** For TRFFTSLK, which amyloid nucleation score is on record?
**A.** -0.402 ± 0.61

**Q.** For TRFLPDAY, which amyloid nucleation score is on record?
**A.** -0.903 ± 0.32

**Q.** With TRFRRDESRTSEDLRPRNRR as the substance, how does the amyloid nucleation score read?
**A.** 1.26 ± 0.23

**Q.** For TRMMCKRFRIML, which amyloid nucleation score is on record?
**A.** 0.544 ± 0.49

**Q.** For TRSSNNPPGMVDT, which amyloid nucleation score is on record?
**A.** -0.959 ± 0.38

**Q.** With TRWSHK as the substance, how does the amyloid nucleation score read?
**A.** inactive

**Q.** For TSCSTTAALEVNIRMTDVGV, which amyloid nucleation score is on record?
**A.** 1.59 ± 0.14

**Q.** Which amyloid nucleation score does the source give for TSESSV here?
**A.** -0.36 ± 0.64

**Q.** Which amyloid nucleation score does the source give for TSFNQELEFFLCGGDVDCNR here?
**A.** -1.17 ± 1.1

**Q.** With TSGQHD as the substance, how does the amyloid nucleation score read?
**A.** -0.133 ± 0.61

**Q.** With TSISYLRVYTRSFMRSLSGL as the substance, how does the amyloid nucleation score read?
**A.** inactive

**Q.** For TSLTQDLEMVLSFNFCMGLA, which amyloid nucleation score is on record?
**A.** -0.158 ± 0.44

**Q.** With TSLYRVSKM as the substance, how does the amyloid nucleation score read?
**A.** -0.945 ± 0.76

**Q.** For TSMSYLLRFVCGFRCTYSLC, which amyloid nucleation score is on record?
**A.** 0.854 ± 0.52

**Q.** Which amyloid nucleation score does the source give for TSMVNSFYKTRGTIK here?
**A.** inactive

**Q.** Which amyloid nucleation score does the source give for TSSMTNERDNLILV here?
**A.** -0.187 ± 0.42

**Q.** Which amyloid nucleation score does the source give for TSSYTWGVEPDASRTILVDT here?
**A.** 0.4 ± 0.32

**Q.** With TSTLNRDDG as the substance, how does the amyloid nucleation score read?
**A.** 0.367 ± 0.34

**Q.** For TSYACRVIAMRVVCPCRQLR, which amyloid nucleation score is on record?
**A.** inactive

**Q.** Which amyloid nucleation score does the source give for TTAWSVEINGTMRNDDMSAS here?
**A.** 2.2 ± 0.091

**Q.** With TTFILNMMLYNSCTYVYMSL as the substance, how does the amyloid nucleation score read?
**A.** 8.549 ± 0.073

**Q.** For TTGRWVVLRG, which amyloid nucleation score is on record?
**A.** 0.342 ± 0.39

**Q.** For TTLRPLYSTWGSQMVFPGLC, which amyloid nucleation score is on record?
**A.** 0.409 ± 0.8

**Q.** Which amyloid nucleation score does the source give for TTMSTGARGLSRCLSVVFRR here?
**A.** 3.08 ± 0.12

**Q.** For TTMYARFIFIVRDSEGMYCS, which amyloid nucleation score is on record?
**A.** 7.089 ± 0.064

**Q.** Which amyloid nucleation score does the source give for TTQDHFFSL here?
**A.** inactive

**Q.** Which amyloid nucleation score does the source give for TTRSNEKIVFHGWTSVINRH here?
**A.** -0.696 ± 0.76

**Q.** Which amyloid nucleation score does the source give for TTTQKGCGVYVAREVSWGLG here?
**A.** 2.56 ± 0.093

**Q.** For TTTWGENLFASNYLLSKTAG, which amyloid nucleation score is on record?
**A.** -0.088 ± 1.1

**Q.** Which amyloid nucleation score does the source give for TTVKYG here?
**A.** 0.553 ± 0.22

**Q.** With TTVSWENGSRVINIVFILMF as the substance, how does the amyloid nucleation score read?
**A.** 5.045 ± 0.04

**Q.** With TTVSYISERFTYLGSL as the substance, how does the amyloid nucleation score read?
**A.** 3.84 ± 0.12

**Q.** With TVAWTSRLFSLAGLLHFDR as the substance, how does the amyloid nucleation score read?
**A.** 4.82 ± 0.062

**Q.** For TVFDRNMDTGIMCIVMSWDN, which amyloid nucleation score is on record?
**A.** -0.318 ± 0.48

**Q.** Which amyloid nucleation score does the source give for TVFFIVPLCSLLDKVNSLGA here?
**A.** 3.34 ± 0.086

**Q.** For TVFSIMLLSRM, which amyloid nucleation score is on record?
**A.** -0.002 ± 1

**Q.** With TVFSYSWQFYGMHSISDYMI as the substance, how does the amyloid nucleation score read?
**A.** inactive

**Q.** Which amyloid nucleation score does the source give for TVIGFRDRDSWSMEMIEDHC here?
**A.** -0.272 ± 0.43

**Q.** For TVKCLYMGNGAWKTASSVCG, which amyloid nucleation score is on record?
**A.** 0.482 ± 0.38

**Q.** Which amyloid nucleation score does the source give for TVLGTCPVNKVVDNSREAGS here?
**A.** 1.36 ± 0.49

**Q.** For TVLILPPHTRSDINFMVHYT, which amyloid nucleation score is on record?
**A.** 4.43 ± 0.063

**Q.** Which amyloid nucleation score does the source give for TVPRFEKHFRAVVNLLGRND here?
**A.** 0.277 ± 0.46

**Q.** For TVSMNMRCCVECHYIKERYL, which amyloid nucleation score is on record?
**A.** 4.16 ± 0.051

**Q.** Which amyloid nucleation score does the source give for TVSNR here?
**A.** -1.27 ± 0.37

**Q.** Which amyloid nucleation score does the source give for TVSRLYEYWLLRMCIY here?
**A.** -0.413 ± 1

**Q.** With TVVSVGVVRVHATLRVKESG as the substance, how does the amyloid nucleation score read?
**A.** 5.661 ± 0.056

**Q.** Which amyloid nucleation score does the source give for TVWGYSSDLKLLEFISIGTQ here?
**A.** 2.71 ± 0.12

**Q.** Which amyloid nucleation score does the source give for TWDSRYGVACLV here?
**A.** -0.325 ± 0.33

**Q.** With TWFCVGKVASSMWVYQGVNF as the substance, how does the amyloid nucleation score read?
**A.** 0.662 ± 0.52

**Q.** With TWFRSVMYPDLSHFYMF as the substance, how does the amyloid nucleation score read?
**A.** inactive

**Q.** Which amyloid nucleation score does the source give for TWNSANFFIKLRQSVFYLSR here?
**A.** -1.46 ± 1.1

**Q.** With TWSEWSTCRMGATRSH as the substance, how does the amyloid nucleation score read?
**A.** 0.301 ± 0.27

**Q.** For TWTRLALFMLIPSG, which amyloid nucleation score is on record?
**A.** 0.464 ± 0.35

**Q.** With TWVNYIIRKVRLVTIRLYVY as the substance, how does the amyloid nucleation score read?
**A.** -0.011 ± 0.65

**Q.** With TYALVTRLFCFLVSEHWVTL as the substance, how does the amyloid nucleation score read?
**A.** -0.047 ± 0.26

**Q.** Which amyloid nucleation score does the source give for TYCFLGFQNIPSMLNPMNFG here?
**A.** 2.98 ± 0.046

**Q.** With TYDYMKRDIMFTWLKRERKA as the substance, how does the amyloid nucleation score read?
**A.** 1.04 ± 0.33

**Q.** With TYFLGPLVSNSLRYY as the substance, how does the amyloid nucleation score read?
**A.** 4.027 ± 0.04

**Q.** For TYGLWRFGTRGKDEFKSPNR, which amyloid nucleation score is on record?
**A.** 6.16 ± 0.058

**Q.** For TYGWSLFERKLNPRGCWFPN, which amyloid nucleation score is on record?
**A.** -0.082 ± 0.63

**Q.** Which amyloid nucleation score does the source give for TYIPGLVRTSLCGVA here?
**A.** -0.245 ± 0.35

**Q.** With TYMWTSLEST as the substance, how does the amyloid nucleation score read?
**A.** inactive

**Q.** With TYSLICQSTTKRFWVWKATL as the substance, how does the amyloid nucleation score read?
**A.** -0.619 ± 1

**Q.** With TYSLKFGSVVGRNYNLGY as the substance, how does the amyloid nucleation score read?
**A.** 2.08 ± 0.1

**Q.** For TYSTLFDFRMI, which amyloid nucleation score is on record?
**A.** 0.099 ± 0.31

**Q.** With TYTYSSCRIARRS as the substance, how does the amyloid nucleation score read?
**A.** -0.559 ± 0.26

**Q.** For TYYVYEVGVS, which amyloid nucleation score is on record?
**A.** -0.203 ± 0.41

**Q.** With VACIFCLSSPHPC as the substance, how does the amyloid nucleation score read?
**A.** 6.48 ± 0.084

**Q.** With VALHWNWDLFLYVRYFFDHT as the substance, how does the amyloid nucleation score read?
**A.** inactive

**Q.** With VAMSCGRSYLKCLMACGLHM as the substance, how does the amyloid nucleation score read?
**A.** -0.053 ± 1

**Q.** For VANRIMLGSLGMGFVVGSSM, which amyloid nucleation score is on record?
**A.** -0.033 ± 0.43

**Q.** With VARVY as the substance, how does the amyloid nucleation score read?
**A.** -0.625 ± 0.36

**Q.** Which amyloid nucleation score does the source give for VASGDSVLPKDIVFFSSIQG here?
**A.** -0.653 ± 0.29

**Q.** With VATAAEWVQAGLE as the substance, how does the amyloid nucleation score read?
**A.** 2.32 ± 0.11

**Q.** Which amyloid nucleation score does the source give for VATNCINMGS here?
**A.** -0.197 ± 0.79

**Q.** For VAVTLNFLIGVIGCRGILMG, which amyloid nucleation score is on record?
**A.** 5.482 ± 0.043

**Q.** For VAWVYSVLKCVSGLVG, which amyloid nucleation score is on record?
**A.** -0.013 ± 0.4

**Q.** With VAYLNLCLS as the substance, how does the amyloid nucleation score read?
**A.** inactive

**Q.** With VCCFLLHQN as the substance, how does the amyloid nucleation score read?
**A.** 6.88 ± 0.083

**Q.** With VCFML as the substance, how does the amyloid nucleation score read?
**A.** 0.94 ± 0.52

**Q.** Which amyloid nucleation score does the source give for VCGFRAIVVVDPYWQPGKMA here?
**A.** 2.42 ± 0.13

**Q.** Which amyloid nucleation score does the source give for VCIVDLVS here?
**A.** -0.203 ± 0.65

**Q.** Which amyloid nucleation score does the source give for VCNRPI here?
**A.** -0.78 ± 0.26

**Q.** Which amyloid nucleation score does the source give for VCRPDINVAHHPGFNFIVRS here?
**A.** inactive
